Experimental data published in publication PMC3477016, “The intrinsic GTPase activity of the Gtr1 protein from Saccharomyces cerevisiae” (BMC Biochemistry, 2012).

Substrate: Nc1nc2c(ncn2[C@@H]2O[C@H](COP(=O)(O)OP(=O)(O)OP(=O)(O)O)[C@@H](O)[C@H]2O)c(=O)[nH]1
Experiment: radioactive GTPase assay, thin-layer chromatography, Lineweaver-Burk
Assay type: biochemical, Saccharomyces cerevisiae
Conditions: pH 7.4, 37 °C, 5 mM MgCl2, 5 mM KCl, 25 mM HEPES, 100 mM sucrose, 60 min, labelled compound [α-32P]GTP 0.1-1.2 μM, no GAP, GEF or Gtr2

B1: Gtr1 (Saccharomyces cerevisiae S288C) (protein)
chain: MSSNNRKKLLLMGRSGSGKSSMRSIIFSNYSAFDTRRLGATIDVEHSHLRFLGNMTLNLWDCGGQDVFMENYFTKQKDHIFQMVQVLIHVFDVESTEVLKDIEIFAKALKQLRKYSPDAKIFVLLHKMDLVQLDKREELFQIMMKNLSETSSEFGFPNLIGFPTSIWDESLYKAWSQIVCSLIPNMSNHQSNLKKFKEIMNALEIILFERTTFLVICSSNGENSNENHDSSDNNNVLLDPKRFEKISNIMKNFKQSCTKLKSGFKTLILNNNIYVSELSSNMVCFIVLKDMNIPQELVLENIKKAKEFFQ
notes: full-length, N-terminal His6 tag (pET28a+ named in acknowledgements), expressed in E. coli, Ni-NTA purified, 36 kDa, monomer (without Gtr2); printed PDB id is of the Gtr1-Gtr2 complex of others
- Km: 1.0 µM
- kcat: 6.7e-05 s⁻¹
